Measured values reported in the supplement of paper PMC7877785.
± gives the uncertainty stated by the source.

Experiment: self-splicing fitness, log relative to wild type (ln ratio); higher = more splicing; Tetrahymena group I intron in knt gene, E. coli kanamycin selection, DiMSum; sequences stand for … in CUCUCU…GGAGGGAAAAGUUAUCAGGCAUGCACCUGGUAGCUAGUCUUUAAACCAAUAGAUUGCAUCGGUUUAAAAGGCAAGACCGUCAAAUUGCGGGAAAGGGGUCAACAGCCGUUCAGUACCAAGUCUCAGGGGAAACUUUGAGAUGGCCUUGCAAAGGGUAUGGUAAUAAGCUGACGGACAUGGUCCUAACCACGCAGCCAAGUCCUAAGUCAACAGAUCUUCUGUUGAUAUGGAUGCAGUUCACAGACUAAAUGUCGGUCGGGGAAGAUGUAUUCUUCUCAUAAGAUAUAGUCGGACCUCUCCUUAAUGGGAGCUAGCGGAUGAAGUGAUGCAACACUGGAGCCGCUGGGAACUAAUUUGUAUGCGAAAGUAUAUUGAUUAGUUUUGGAGUACUCGUGGUCG
In short: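 DiMSum derived fitness as the error-weighted combination of fold changes across replicates, kanamycin versus no kanamycin, normalised to wild type. E. coli BL21(DE3) held the library, which randomised all eight P1ex-region intron nucleotides within the knt kanamycin-resistance gene on pET-22b(+). Six replicate transformations grew overnight at 37°C or 30°C on LB agar with or without 25 μg/mL kanamycin, also containing 100 μg/mL carbenicillin, 50 μM IPTG and 0.2% rhamnose, and pooled colonies were amplicon-sequenced on an Illumina HiSeq 2500.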

| Sequence | self-splicing fitness (ln) (30 °C) | self-splicing fitness (ln) (37 °C) |
| --- | --- | --- |
| GAUCAGCAAUAUUACGUAGC | -0.999 ± 0.11 | -0.402 ± 0.12 |
| CGGCAGCAAUAUUACGGAAG | -1.07 ± 0.09 | -0.442 ± 0.12 |
| UCUGAGCAAUAUUACGCGAA | – | -1.8 ± 0.25 |
| UACCAGCAAUAUUACGUGUU | -3.72 ± 0.11 | -1.38 ± 0.078 |
| ACUAAGCAAUAUUACGGUCA | -1.57 ± 0.077 | -1.35 ± 0.094 |
| GACUAGCAAUAUUACGAACA | -1.02 ± 0.16 | -0.254 ± 0.17 |
| CAUGAGCAAUAUUACGUGCC | -3.97 ± 0.33 | -2.47 ± 0.32 |
| AACCAGCAAUAUUACGAGCU | -2.52 ± 0.087 | -1.82 ± 0.1 |
| GAUUAGCAAUAUUACGUUUC | -3.69 ± 0.28 | -1.89 ± 0.18 |
| GUUUAGCAAUAUUACGCAUC | -1.28 ± 0.14 | -1.04 ± 0.19 |
| UUCGAGCAAUAUUACGACCA | -2.28 ± 0.43 | -1.33 ± 0.28 |
| UCAUAGCAAUAUUACGAGCG | -1.95 ± 0.12 | -0.509 ± 0.13 |
| AUUUAGCAAUAUUACGGCAG | -2.47 ± 0.14 | -0.321 ± 0.15 |
| GUCAAGCAAUAUUACGAAAG | -3.72 ± 0.4 | -1.39 ± 0.49 |
| CUACAGCAAUAUUACGCUGA | -3.41 ± 0.28 | – |
| GGAUAGCAAUAUUACGCUCU | -1.63 ± 0.26 | – |
| GGGGAGCAAUAUUACGUCCU | -3.89 ± 0.4 | – |
| UUCGAGCAAUAUUACGGUUG | -3.78 ± 0.19 | -2.47 ± 0.16 |
| CAUCAGCAAUAUUACGUGAC | -3.66 ± 0.19 | -1.2 ± 0.14 |
| AACAAGCAAUAUUACGAUAG | -3.24 ± 0.17 | -2.24 ± 0.18 |

| Sequence | self-splicing fitness (ln) (30 °C) | self-splicing fitness (ln) (37 °C) |
| --- | --- | --- |
| AGCCAGCAAUAUUACGUACA | -3.16 ± 0.22 | -2.5 ± 0.27 |
| GUGUAGCAAUAUUACGGCAA | -0.687 ± 0.17 | -0.481 ± 0.23 |
| AGCUAGCAAUAUUACGCGUA | -3.08 ± 0.26 | -0.709 ± 0.18 |
| CACAAGCAAUAUUACGUCCG | -0.428 ± 0.094 | 0.252 ± 0.12 |
| CAGCAGCAAUAUUACGUGUG | -2.51 ± 0.077 | -1.32 ± 0.088 |
| CUCGAGCAAUAUUACGGACA | -2.98 ± 0.33 | -1.35 ± 0.29 |
| UAGGAGCAAUAUUACGUAUA | -2.34 ± 0.21 | -0.936 ± 0.17 |
| ACACAGCAAUAUUACGGGUA | -2.3 ± 0.098 | -1.26 ± 0.074 |
| GAAUAGCAAUAUUACGGAUA | -2.36 ± 0.26 | -1.46 ± 0.21 |
| UGGUAGCAAUAUUACGUUUA | -1.58 ± 0.11 | -0.847 ± 0.1 |
| UAGUAGCAAUAUUACGUGGA | -2.56 ± 0.31 | -1.29 ± 0.2 |
| AUCUAGCAAUAUUACGGGAG | -0.833 ± 0.076 | -0.293 ± 0.092 |
| UAGUAGCAAUAUUACGUUCG | -0.331 ± 0.091 | -0.159 ± 0.11 |
| AACAAGCAAUAUUACGUAGA | -2.88 ± 0.089 | -0.993 ± 0.077 |
| CACCAGCAAUAUUACGAACG | 0.223 ± 0.063 | 0.344 ± 0.078 |
| GGCCAGCAAUAUUACGAGUC | -2.16 ± 0.14 | -1.24 ± 0.14 |
| GAGCAGCAAUAUUACGCCGU | -1.39 ± 0.12 | -0.525 ± 0.19 |
| UGCCAGCAAUAUUACGAUGA | -1.99 ± 0.14 | -0.997 ± 0.12 |
| GAUUAGCAAUAUUACGAUAA | -0.956 ± 0.12 | 0.0487 ± 0.15 |
